Data as given in paper PMC5627276.

What was measured:
[1] = molecular target: bRSV F DS2-v33 (391-2 sc9-10 DS-Cav1 Q98C Q361C) (bovine respiratory syncytial virus, strain 391-2 | bacteriophage T4); assay: SEC; after nickel and Strep-Tactin affinity columns and cleavage of the C-terminal affinity tags; SEC in PBS
[2] = molecular target: bRSV F DS2-v33 (391-2 sc9-10 DS-Cav1 Q98C Q361C) (bovine respiratory syncytial virus, strain 391-2 | bacteriophage T4); assay: negative stain EM; about 0.01 mg/ml, 10 mM HEPES pH 7.0, 150 mM KCl, 0.75% uranyl formate; reference-free 2D class averaging
[3] = molecular target: bRSV F 391-2 DS-Cav1 (bovine respiratory syncytial virus, strain 391-2 | bacteriophage T4); assay: SEC; after nickel and Strep-Tactin affinity columns and cleavage of the C-terminal affinity tags; SEC in PBS
[4] = molecular target: bRSV F 391-2 DS-Cav1 (bovine respiratory syncytial virus, strain 391-2 | bacteriophage T4); assay: negative stain EM; about 0.01 mg/ml, 10 mM HEPES pH 7.0, 150 mM KCl, 0.75% uranyl formate; reference-free 2D class averaging
[5] = molecular target: bRSV F RB94 DS-Cav1 (bovine respiratory syncytial virus, strain RB94 | bacteriophage T4); assay: SEC; after nickel and Strep-Tactin affinity columns and cleavage of the C-terminal affinity tags; SEC in PBS
[6] = molecular target: bRSV F RB94 DS-Cav1 (bovine respiratory syncytial virus, strain RB94 | bacteriophage T4); assay: negative stain EM; about 0.01 mg/ml, 10 mM HEPES pH 7.0, 150 mM KCl, 0.75% uranyl formate; reference-free 2D class averaging
[7] = molecular target: bRSV F DS2-v1 (391-2 sc9 DS-Cav1 Q98C Q361C) (bovine respiratory syncytial virus, strain 391-2 | bacteriophage T4); assay: SEC; after nickel and Strep-Tactin affinity columns and cleavage of the C-terminal affinity tags; SEC in PBS
[8] = molecular target: bRSV F DS2-v1 (391-2 sc9 DS-Cav1 Q98C Q361C) (bovine respiratory syncytial virus, strain 391-2 | bacteriophage T4); assay: negative stain EM; about 0.01 mg/ml, 10 mM HEPES pH 7.0, 150 mM KCl, 0.75% uranyl formate; reference-free 2D class averaging
[9] = molecular target: bRSV F DS2-v35 (ATue51908 sc9-10 DS-Cav1 A149C Y458C) (bovine respiratory syncytial virus, strain ATue51908 | bacteriophage T4); assay: SEC; after nickel and Strep-Tactin affinity columns and cleavage of the C-terminal affinity tags; SEC in PBS
[10] = molecular target: bRSV F DS2-v35 (ATue51908 sc9-10 DS-Cav1 A149C Y458C) (bovine respiratory syncytial virus, strain ATue51908 | bacteriophage T4); assay: negative stain EM; about 0.01 mg/ml, 10 mM HEPES pH 7.0, 150 mM KCl, 0.75% uranyl formate; reference-free 2D class averaging
[11] = molecular target: bRSV F ATue51908 DS-Cav1 (bovine respiratory syncytial virus, strain ATue51908 | bacteriophage T4); assay: SEC; after nickel and Strep-Tactin affinity columns and cleavage of the C-terminal affinity tags; SEC in PBS
[12] = molecular target: bRSV F ATue51908 DS-Cav1 (bovine respiratory syncytial virus, strain ATue51908 | bacteriophage T4); assay: negative stain EM; about 0.01 mg/ml, 10 mM HEPES pH 7.0, 150 mM KCl, 0.75% uranyl formate; reference-free 2D class averaging

Substance: bRSV F DS2-v33 (391-2 sc9-10 DS-Cav1 Q98C Q361C) (domain or fragment)
- stoichiometry N [1]: 3
- stoichiometry N [2]: 3

Substance: bRSV F 391-2 DS-Cav1 (domain or fragment)
- stoichiometry N [3]: 3
- stoichiometry N [4]: 3

Substance: bRSV F RB94 DS-Cav1 (domain or fragment)
- stoichiometry N [5]: 3
- stoichiometry N [6]: 3

Substance: bRSV F DS2-v1 (391-2 sc9 DS-Cav1 Q98C Q361C) (domain or fragment)
- stoichiometry N [7]: 3
- stoichiometry N [8]: 3

Substance: bRSV F DS2-v35 (ATue51908 sc9-10 DS-Cav1 A149C Y458C) (domain or fragment)
- stoichiometry N [9]: 3
- stoichiometry N [10]: 3

Substance: bRSV F ATue51908 DS-Cav1 (domain or fragment)
- stoichiometry N [11]: 3
- stoichiometry N [12]: 3
